In patent publication US20080020978A1 (Amgen, published 2008):
Residue numbers refer to the chain shown, from its start. Square brackets hold non-standard residues; d marks the D form. Igl = N[C@H](C(=O)O)C1Cc2ccccc2C1; hArg = N=C(N)NCCCC[C@H](N)C(=O)O; Cit = NC(=O)NCCC[C@H](N)C(=O)O; Phg = N[C@H](C(=O)O)c1ccccc1; Nle = CCCC[C@H](N)C(=O)O

B1: SEQ ID NO 918 (peptide)
peptide: Ac-WVTH[Cit]LAGLLS[Cit]SGGVVRKNFVPTDVGPKAF-NH2
SMILES: CC(=O)N[C@@H](Cc1c[nH]c2ccccc12)C(=O)N[C@H](C(=O)N[C@H](C(=O)N[C@@H](Cc1c[nH]cn1)C(=O)N[C@@H](CCCNC(N)=O)C(=O)N[C@@H](CC(C)C)C(=O)N[C@@H](C)C(=O)NCC(=O)N[C@@H](CC(C)C)C(=O)N[C@@H](CC(C)C)C(=O)N[C@@H](CO)C(=O)N[C@@H](CCCNC(N)=O)C(=O)N[C@@H](CO)C(=O)NCC(=O)NCC(=O)N[C@H](C(=O)N[C@H](C(=O)N[C@@H](CCCNC(=N)N)C(=O)N[C@@H](CCCCN)C(=O)N[C@@H](CC(N)=O)C(=O)N[C@@H](Cc1ccccc1)C(=O)N[C@H](C(=O)N1CCC[C@H]1C(=O)N[C@H](C(=O)N[C@@H](CC(=O)O)C(=O)N[C@H](C(=O)NCC(=O)N1CCC[C@H]1C(=O)N[C@@H](CCCCN)C(=O)N[C@@H](C)C(=O)N[C@@H](Cc1ccccc1)C(N)=O)C(C)C)[C@@H](C)O)C(C)C)C(C)C)C(C)C)[C@@H](C)O)C(C)C
B2: PEG-peptide of SEQ ID NO 929 (peptide)
peptide: WVTHXLAGLLSXSGGVVXKNFVPTDVGPXAF
modifications: Ac-WVTH[Cit]LAGLLS[Cit]SGGVV[hArg]KNFVPTDVGP[Bip]AF-NH2; PEG-conjugated (Table 2C: in most cases at Lys^25)
B3: PEG-peptide of SEQ ID NO 927 (peptide)
peptide: B2 peptide
modifications: Ac-WVTH[Cit]LAGLLS[Cit]SGGVV[hArg]KNFVPTDVGP[1-Nal]AF-NH2; PEG-conjugated (Table 2C: in most cases at Lys^25)
B4: PEG-peptide of SEQ ID NO 926 (peptide)
peptide: B2 peptide
modifications: Ac-WVTH[hArg]LAGLLS[Cit]SGGVV[hArg]KNFVPTDVGP[2-Nal]AF-NH2; PEG-conjugated (Table 2C: in most cases at Lys^25)
B5: SEQ ID NO 925 (peptide)
peptide: Ac-WVTH[hArg]LAGLLS[Cit]SGGVV[hArg]KNFVPTDVGPFA[Phg]-NH2
SMILES: CC(=O)N[C@@H](Cc1c[nH]c2ccccc12)C(=O)N[C@H](C(=O)N[C@H](C(=O)N[C@@H](Cc1c[nH]cn1)C(=O)N[C@@H](CCCCNC(=N)N)C(=O)N[C@@H](CC(C)C)C(=O)N[C@@H](C)C(=O)NCC(=O)N[C@@H](CC(C)C)C(=O)N[C@@H](CC(C)C)C(=O)N[C@@H](CO)C(=O)N[C@@H](CCCNC(N)=O)C(=O)N[C@@H](CO)C(=O)NCC(=O)NCC(=O)N[C@H](C(=O)N[C@H](C(=O)N[C@@H](CCCCNC(=N)N)C(=O)N[C@@H](CCCCN)C(=O)N[C@@H](CC(N)=O)C(=O)N[C@@H](Cc1ccccc1)C(=O)N[C@H](C(=O)N1CCC[C@H]1C(=O)N[C@H](C(=O)N[C@@H](CC(=O)O)C(=O)N[C@H](C(=O)NCC(=O)N1CCC[C@H]1C(=O)N[C@@H](Cc1ccccc1)C(=O)N[C@@H](C)C(=O)N[C@H](C(N)=O)c1ccccc1)C(C)C)[C@@H](C)O)C(C)C)C(C)C)C(C)C)[C@@H](C)O)C(C)C
B6: PEG-peptide of SEQ ID NO 928 (peptide)
peptide: B2 peptide with F21X
modifications: Ac-WVTH[Cit]LAGLLS[Cit]SGGVV[hArg]KN[pI-Phe]VPTDVGP[pI-Phe]AF-NH2; PEG-conjugated (Table 2C: in most cases at Lys^25)
B7: SEQ ID NO 940 (peptide)
peptide: Ac-WVTH[Cit]LAGLLS[Cit]SGGV[Nle]RKNFVPTDVGPFAF-NH2
SMILES: CCCC[C@H](NC(=O)[C@@H](NC(=O)CNC(=O)CNC(=O)[C@H](CO)NC(=O)[C@H](CCCNC(N)=O)NC(=O)[C@H](CO)NC(=O)[C@H](CC(C)C)NC(=O)[C@H](CC(C)C)NC(=O)CNC(=O)[C@H](C)NC(=O)[C@H](CC(C)C)NC(=O)[C@H](CCCNC(N)=O)NC(=O)[C@H](Cc1c[nH]cn1)NC(=O)[C@@H](NC(=O)[C@@H](NC(=O)[C@H](Cc1c[nH]c2ccccc12)NC(C)=O)C(C)C)[C@@H](C)O)C(C)C)C(=O)N[C@@H](CCCNC(=N)N)C(=O)N[C@@H](CCCCN)C(=O)N[C@@H](CC(N)=O)C(=O)N[C@@H](Cc1ccccc1)C(=O)N[C@H](C(=O)N1CCC[C@H]1C(=O)N[C@H](C(=O)N[C@@H](CC(=O)O)C(=O)N[C@H](C(=O)NCC(=O)N1CCC[C@H]1C(=O)N[C@@H](Cc1ccccc1)C(=O)N[C@@H](C)C(=O)N[C@@H](Cc1ccccc1)C(N)=O)C(C)C)[C@@H](C)O)C(C)C

Molecular target: CGRP1 receptor (CRLR/RAMP1 complex) of human neuroblastoma SK-N-MC cells (human, UniProt Q16602 23-461; O60894 27-148)
Test: cell-based or functional assay

CGRP1 receptor (CRLR/RAMP1 complex) of human neuroblastoma SK-N-MC cells, sequence (Q16602 23-461, chain 1 of 2): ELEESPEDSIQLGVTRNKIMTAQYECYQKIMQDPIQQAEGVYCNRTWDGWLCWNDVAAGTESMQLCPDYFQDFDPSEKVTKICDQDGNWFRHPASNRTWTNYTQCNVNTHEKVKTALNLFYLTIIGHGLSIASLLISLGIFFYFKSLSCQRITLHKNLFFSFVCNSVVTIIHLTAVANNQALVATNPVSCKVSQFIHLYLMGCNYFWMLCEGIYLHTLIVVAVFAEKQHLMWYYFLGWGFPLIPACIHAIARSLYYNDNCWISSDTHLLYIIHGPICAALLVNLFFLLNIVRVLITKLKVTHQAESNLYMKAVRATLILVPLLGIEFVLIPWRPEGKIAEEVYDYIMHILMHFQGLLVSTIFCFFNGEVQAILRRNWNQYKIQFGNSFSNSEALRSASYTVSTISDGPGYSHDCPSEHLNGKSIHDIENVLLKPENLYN
CGRP1 receptor (CRLR/RAMP1 complex) of human neuroblastoma SK-N-MC cells, sequence (O60894 27-148, chain 2 of 2): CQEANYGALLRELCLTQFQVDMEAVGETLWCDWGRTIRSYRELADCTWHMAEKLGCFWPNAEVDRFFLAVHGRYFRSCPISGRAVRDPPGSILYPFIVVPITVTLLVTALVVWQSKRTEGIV

Point of comparison: WVTHXLAGLLSXSGGVVXKNFVPTDVGXXAF (Ac-WVTH[Cit]LAGLLS[Cit]SGGVV[hArg]KNFVPTDVG[Oic][2-Nal]AF-NH2) [SEQ ID NO 934], “Peptide IC50” value 1.65 nM. Against it:
- B1 — within 1.5-fold, 1.48 nM
- WVTHXLAGLLSXSGGVVRKNFVPTDVGXFAF (Ac-WVTH[Cit]LAGLLS[Cit]SGGVVRKNFVPTDVG[Oic]FAF-NH2) [SEQ ID NO 920] — 1.9-fold lower, 0.85 nM
- WVTHXLAGLLSXSGGVVXKNFVPTDVGPFAF (Ac-WVTH[Cit]LAGLLS[Cit]SGGVV[3G-Dpr]KNFVPTDVGPFAF-NH2) [SEQ ID NO 938] — within 1.5-fold, 1.39 nM
- WVTHXLAGLLSXSGGVVRKNXVPTDVGPFAX (Ac-WVTH[Cit]LAGLLS[Cit]SGGVVRKN[pI-Phe]VPTDVGPFA[pI-Phe]-NH2) [SEQ ID NO 922] — within 1.5-fold, 2.21 nM
- WVTHXLAGLLSXSGGVVXKNFVPTDVGPXAF (Ac-WVTH[Cit]LAGLLS[Cit]SGGVV[hArg]KNFVPTDVGP[1-Nal]AF-NH2) [SEQ ID NO 927] — within 1.5-fold, 1.28 nM
- WVTHXLAGLLSXSGGVVXKNFVXTDVGXFAF (Ac-WVTH[Cit]LAGLLS[Cit]SGGVV[hArg]KNFV[Oic]TDVG[Oic]FAF-NH2) [SEQ ID NO 932] — within 1.5-fold, 1.31 nM
- WVTHXLAGLLSXSGGVVRKNFVXTDVGXFAF (Ac-WVTH[Cit]LAGLLS[Cit]SGGVVRKNFV[Oic]TDVG[Oic]FAF-NH2) [SEQ ID NO 921] — 1.8-fold lower, 0.93 nM
- WVTHXLAGLLSXSGGVVXKNFVPTDVGPFAF (Ac-WVTH[Cit]LAGLLS[hArg]SGGVV[Guf]KNFVPTDVGPFAF-NH2) [SEQ ID NO 935] — within 1.5-fold, 2.37 nM
- WVTHXLAGLLSXSGGVVXKNFVPTDVGPFAF (Ac-WVTH[Cit]LAGLLS[Cit]SGGVV[Cit]KNFVPTDVGPFAF-NH2) [SEQ ID NO 937] — 1.7-fold higher, 2.87 nM
- WVTHXLAGLLSXSGGVVXKNFVPTDVGPXAF (Ac-WVTH[Cit]LAGLLS[Cit]SGGVV[hArg]KNFVPTDVGP[Bip]AF-NH2) [SEQ ID NO 929] — within 1.5-fold, 1.76 nM
- WVTHXLAGLLSXSGGVVXKNFVPTDVGPFAF (Ac-WVTH[Cit]LAGLLS[hArg]SGGVV[BhArg]KNFVPTDVGPFAF-NH2) [SEQ ID NO 936] — within 1.5-fold, 2.41 nM
- WVTHXLAGLLSXSGGVVRKNFVPTDVGPFAX (Ac-WVTH[Cit]LAGLLS[Cit]SGGVVRKNFVPTDVGPFA[pI-Phe]-NH2) [SEQ ID NO 923] — within 1.5-fold, 2.24 nM
- WVTHXLAGLLSXSGGVVXKNFVPTDVGPXAF (Ac-WVTH[hArg]LAGLLS[Cit]SGGVV[hArg]KNFVPTDVGP[2-Nal]AF-NH2) [SEQ ID NO 926] — 1.9-fold lower, 0.88 nM
- WVTHXLAGLLSXSGGVVXKNFVPTDVGPXAF (Ac-WVTH[hArg]LAGLLS[Cit]SGGVV[hArg]KNFVPTDVGP[1-Nal]AF-NH2) [SEQ ID NO 924] — within 1.5-fold, 2.18 nM
- WVTHXLAGLLSXSGGVVXKNFVPTDVGXXAF (Ac-WVTH[Cit]LAGLLS[Cit]SGGVV[hArg]KNFVPTDVG[Oic][1-Nal]AF-NH2) [SEQ ID NO 933] — 1.9-fold lower, 0.88 nM
- B5 — 4.1-fold higher, 6.78 nM
- WVTHXLAGLLSXSGGVVXKNXVPTDVGPXAF (Ac-WVTH[Cit]LAGLLS[Cit]SGGVV[hArg]KN[pI-Phe]VPTDVGP[pI-Phe]AF-NH2) [SEQ ID NO 928] — within 1.5-fold, 1.16 nM
- B7 — within 1.5-fold, 1.85 nM
- Ac-WVTH[Cit]LAGLLS[Cit]SGGVV[hArg]KNFVPTDVGP[Igl]AF-NH2 [SEQ ID NO 930] — 2.8-fold higher, 4.58 nM

Point of comparison: Ac-WVTH[Cit]LAGLLS[Cit]SGGVV[hArg]KNFVPTDVGP[Igl]AF-NH2 (also: PEG-conjugated, in most cases at Lys25) [PEG-peptide of SEQ ID NO 930], “PEG-peptide IC50” value 126 nM. Against it:
- B2 — 23-fold lower, 5.58 nM
- B3 — 50-fold lower, 2.54 nM
- B4 — 53-fold lower, 2.39 nM
- WVTHXLAGLLSXSGGVVXKNFVPTDVGPFAF (Ac-WVTH[Cit]LAGLLS[Cit]SGGVV[hArg](30 KPEGald)NFVPTDVGPFAF-NH2) [PEG-peptide of SEQ ID NO 941] — 16-fold lower, 7.76 nM
- B6 — 11-fold lower, 11.4 nM
